PMC6370846

How the values were obtained:
[1] = dual-color fluorescence cross-correlation spectroscopy (FCCS); self-aggregation: Cy5-labelled and Oregon green 488-labelled copies of the same construct mixed in equal volumes (125 µL each) at 536 µM monomer-equivalent, incubated at 310 K with shaking at 250 rpm for up to 24 h; aliquots …; details: other: dual-color fluorescence cross-correlation spectroscopy (FCCS)
[2] = target: α-synuclein monomer (αS-1), C-terminally Cys-tagged, dye-labelled; test: dual-color fluorescence cross-correlation spectroscopy (FCCS); self-aggregation: Cy5-labelled and Oregon green 488-labelled copies of the same construct mixed in equal volumes (125 µL each) at 536 µM monomer-equivalent, incubated at 310 K with shaking at 250 rpm for up to 24 h; aliquots diluted in PBS to ~134 pM and measured at 298 K; fractions nrg/nr and nrg/ng fitted to single-exponential growth
[3] = target: α-synuclein tandem octamer (αS-8), C-terminally Cys-tagged, dye-labelled; test: dual-color fluorescence cross-correlation spectroscopy (FCCS); co-aggregation with swapped fluorophores: Cy5-labelled monomer mixed with Oregon green 488-labelled tandem oligomer, equal volumes (125 µL each) at 536 µM monomer-equivalent, 310 K, shaking at 250 rpm, up to 24 h; aliquots diluted in PBS to ~134 pM and measured at 298 K; single-exponential fits
[4] = target: α-synuclein tandem tetramer (αS-4), C-terminally Cys-tagged, dye-labelled; test: as above
[5] = target: α-synuclein tandem dimer (αS-2), C-terminally Cys-tagged, dye-labelled; test: as above
[6] = target: α-synuclein tandem octamer (αS-8), C-terminally Cys-tagged, dye-labelled; test: dual-color fluorescence cross-correlation spectroscopy (FCCS); co-aggregation: Cy5-labelled tandem oligomer mixed with Oregon green 488-labelled monomer, equal volumes (125 µL each) at 536 µM monomer-equivalent, 310 K, shaking at 250 rpm, up to 24 h; aliquots diluted in PBS to ~134 pM and measured at 298 K; single-exponential fits
[7] = target: α-synuclein tandem tetramer (αS-4), C-terminally Cys-tagged, dye-labelled; test: as above
[8] = target: α-synuclein tandem dimer (αS-2), C-terminally Cys-tagged, dye-labelled; test: as above
[9] = target: α-synuclein tandem dimer (αS-2), C-terminally Cys-tagged, dye-labelled; test: dual-color fluorescence cross-correlation spectroscopy (FCCS); self-aggregation: Cy5-labelled and Oregon green 488-labelled copies of the same construct mixed in equal volumes (125 µL each) at 536 µM monomer-equivalent, incubated at 310 K with shaking at 250 rpm for up to 24 h; aliquots diluted in PBS to ~134 pM and measured at 298 K; fractions nrg/nr and nrg/ng fitted to single-exponential growth
[10] = target: α-synuclein tandem octamer (αS-8), C-terminally Cys-tagged, dye-labelled; test: as above
[11] = target: α-synuclein tandem tetramer (αS-4), C-terminally Cys-tagged, dye-labelled; test: as above

Substance: α-synuclein monomer (αS-1), C-terminally Cys-tagged, dye-labelled
- percent incorporated into dual-color aggregates after 24 hr [1]: only ~5% of αS-1 and αS-2
- |A| of nrg/ng (extent, percent of Oregon green-labelled species in dual-color aggregates) [1]: 8%
- |A| of nrg/nr (extent, percent of Cy5-labelled species in dual-color aggregates) [1]: 6%

Substance: α-synuclein monomer (αS-1), C-terminally Cys-tagged, dye-labelled (natural protein)
- k of nrg/ng (rate of exponential growth of aggregation) [2]: 0.035 h⁻¹
- k of nrg/nr (rate of exponential growth of aggregation) [2]: 0.043 h⁻¹
- k of nrg/ng (rate of exponential growth of co-aggregation) [3]: 0.2 h⁻¹
- k of nrg/nr (rate of exponential growth of co-aggregation) [3]: 0.05 h⁻¹
- |A| of nrg/ng (extent, percent of Oregon green-labelled αS-8 in dual-color co-aggregates) [3]: 11%
- |A| of nrg/nr (extent, percent of Cy5-labelled αS-1 in dual-color co-aggregates) [3]: 4%
- k of nrg/ng (rate of exponential growth of co-aggregation) [4]: 0.5 h⁻¹
- k of nrg/nr (rate of exponential growth of co-aggregation) [4]: 2 h⁻¹
- |A| of nrg/ng (extent, percent of Oregon green-labelled αS-4 in dual-color co-aggregates) [4]: 20%
- |A| of nrg/nr (extent, percent of Cy5-labelled αS-1 in dual-color co-aggregates) [4]: 1%
- k of nrg/ng (rate of exponential growth of co-aggregation) [5]: 0.2 h⁻¹
- k of nrg/nr (rate of exponential growth of co-aggregation) [5]: 0.2 h⁻¹
- |A| of nrg/ng (extent, percent of Oregon green-labelled αS-2 in dual-color co-aggregates) [5]: 4%
- |A| of nrg/nr (extent, percent of Cy5-labelled αS-1 in dual-color co-aggregates) [5]: 5%
- k of nrg/ng (rate of exponential growth of co-aggregation) [6]: 0.4 h⁻¹
- k of nrg/nr (rate of exponential growth of co-aggregation) [6]: 0.12 h⁻¹
- |A| of nrg/ng (extent, percent of Oregon green-labelled αS-1 in dual-color co-aggregates) [6]: 1%
- |A| of nrg/nr (extent, percent of Cy5-labelled αS-8 in dual-color co-aggregates) [6]: 40%
- k of nrg/ng (rate of exponential growth of co-aggregation) [7]: 0.8 h⁻¹
- k of nrg/nr (rate of exponential growth of co-aggregation) [7]: 0.23 h⁻¹
- |A| of nrg/ng (extent, percent of Oregon green-labelled αS-1 in dual-color co-aggregates) [7]: 2%
- |A| of nrg/nr (extent, percent of Cy5-labelled αS-4 in dual-color co-aggregates) [7]: 11%
- k of nrg/ng (rate of exponential growth of co-aggregation) [8]: 0.4 h⁻¹
- k of nrg/nr (rate of exponential growth of co-aggregation) [8]: 0.11 h⁻¹
- |A| of nrg/ng (extent, percent of Oregon green-labelled αS-1 in dual-color co-aggregates) [8]: 1.7%
- |A| of nrg/nr (extent, percent of Cy5-labelled αS-2 in dual-color co-aggregates) [8]: 4%

Substance: α-synuclein tandem dimer (αS-2), C-terminally Cys-tagged, dye-labelled
- k of nrg/ng (rate of exponential growth of aggregation) [9]: 0.2 h⁻¹
- k of nrg/nr (rate of exponential growth of aggregation) [9]: 0.23 h⁻¹
- percent incorporated into dual-color aggregates after 24 hr [1]: only ~5% of αS-1 and αS-2
- |A| of nrg/ng (extent, percent of Oregon green-labelled species in dual-color aggregates) [1]: 4%
- |A| of nrg/nr (extent, percent of Cy5-labelled species in dual-color aggregates) [1]: 5%

Substance: α-synuclein tandem octamer (αS-8), C-terminally Cys-tagged, dye-labelled
- k of nrg/ng (rate of exponential growth of aggregation) [10]: 0.06 h⁻¹
- k of nrg/nr (rate of exponential growth of aggregation) [10]: 0.15 h⁻¹
- percent incorporated into dual-color aggregates after 24 hr [1]: ~35% of Cy5-labelled αS-8
- |A| of nrg/ng (extent, percent of Oregon green-labelled species in dual-color aggregates) [1]: 26%
- |A| of nrg/nr (extent, percent of Cy5-labelled species in dual-color aggregates) [1]: 29%

Substance: α-synuclein tandem tetramer (αS-4), C-terminally Cys-tagged, dye-labelled
- k of nrg/ng (rate of exponential growth of aggregation) [11]: 0.18 h⁻¹
- k of nrg/nr (rate of exponential growth of aggregation) [11]: 0.17 h⁻¹
- percent incorporated into dual-color aggregates after 24 hr [1]: ~15% of Cy5-labelled αS-4
- |A| of nrg/ng (extent, percent of Oregon green-labelled species in dual-color aggregates) [1]: 17%
- |A| of nrg/nr (extent, percent of Cy5-labelled species in dual-color aggregates) [1]: 14%
